System: F1*sub RNA substrate (template-directed ligation)
Experiment: fraction ligated after 30 min (ligated reads / total reads); higher = more ligase activity; sequences stand for … in GAGACCGCAACTGAAAAGTTGT…AGTTCTGCACGTAGAAGCAAAAGGC
Settings: 42 °C
How it was run: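 The ligase ribozyme variants were produced by PCR amplification of oligo-pool templates, T7 transcription and purification on gel. Their ligated and unligated forms were gel-separated, then reverse transcribed with barcoded primers before MiSeq sequencing. Core bases were filtered at a quality of ≥20, and fraction ligated per variant was ligated reads over total reads.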

Row | Sequence | fraction ligated
1 | TTCACTTGTCGTAAACATTTGGATGGGTTGA [3d444] | 0.804
2 | TTCACTTGTCGTAAACCTTTGGATGGGTTGA [3d443] | 0.514
3 | TTCACTTGTCGTAACACTTTGGATGGGTTGA [3d430] | 0.728
4 | TTCACTTGTCGTAAGAACTTGGATGGGTTGA [3d463] | 0.226
5 | TTCACTTGTCGTAAGAACTTTGATGGGTTGA [3d464] | 0.119
6 | TTCACTTGTCGTAAGAACTTTGGAGGGTTGA [3d466] | 0.0901
7 | TTCACTTGTCGTAAGAACTTTGGATGGGTTA [3d468] | 0.0936
8 | TTCACTTGTCGTAAGAACTTTGGATGGGTTG [3d469] | 0.533
9 | TTCACTTGTCGTAAGAACTTTGGATGGGTTGA [2d37] | 0.748
10 | TTCACTTGTCGTAAGAACTTTGGATGGTTGA [3d467] | 0.279
11 | TTCACTTGTCGTAAGAACTTTGGTGGGTTGA [3d465] | 0.019
12 | TTCACTTGTCGTAAGAATTTGGATGGGTTGA [3d462] | 0.693
13 | TTCACTTGTCGTAAGACACTGGATGGGTTGA [3d484] | 0.705
14 | TTCACTTGTCGTAAGACACTTGATGGGTTGA [3d485] | 0.0622
15 | TTCACTTGTCGTAAGACACTTGGAGGGTTGA [3d487] | 0.0171
16 | TTCACTTGTCGTAAGACACTTGGATGGGTTA [3d489] | 0.0495
17 | TTCACTTGTCGTAAGACACTTGGATGGGTTG [3d490] | 0.288
18 | TTCACTTGTCGTAAGACACTTGGATGGGTTGA [2d40] | 0.656
19 | TTCACTTGTCGTAAGACACTTGGATGGTTGA [3d488] | 0.161
20 | TTCACTTGTCGTAAGACACTTGGTGGGTTGA [3d486] | 0.00989
21 | TTCACTTGTCGTAAGACACTTTATGGGTTGA [3d491] | 0.00731
22 | TTCACTTGTCGTAAGACACTTTGAGGGTTGA [3d493] | 0.0469
23 | TTCACTTGTCGTAAGACACTTTGATGGGTTA [3d495] | 0.0395

Row | Sequence | fraction ligated
24 | TTCACTTGTCGTAAGACACTTTGATGGGTTG [3d496] | 0.298
25 | TTCACTTGTCGTAAGACACTTTGATGGGTTGA [2d41] | 0.553
26 | TTCACTTGTCGTAAGACACTTTGATGGTTGA [3d494] | 0.0545
27 | TTCACTTGTCGTAAGACACTTTGGAGGGTTA [3d502] | 0.0179
28 | TTCACTTGTCGTAAGACACTTTGGAGGGTTG [3d503] | 0.103
29 | TTCACTTGTCGTAAGACACTTTGGAGGGTTGA [2d43] | 0.227
30 | TTCACTTGTCGTAAGACACTTTGGAGGTTGA [3d501] | 0.00904
31 | TTCACTTGTCGTAAGACACTTTGGATGGGTT [3d506] | 0.0428
32 | TTCACTTGTCGTAAGACACTTTGGATGGGTTA [2d45] | 0.619
33 | TTCACTTGTCGTAAGACACTTTGGATGGGTTG [2d46] | 0.792
34 | TTCACTTGTCGTAAGACACTTTGGATGGGTTGA [1d2] | 0.789
35 | TTCACTTGTCGTAAGACACTTTGGATGGTTA [3d504] | 0.636
36 | TTCACTTGTCGTAAGACACTTTGGATGGTTG [3d505] | 0.681
37 | TTCACTTGTCGTAAGACACTTTGGATGGTTGA [2d44] | 0.739
38 | TTCACTTGTCGTAAGACACTTTGGGGGTTGA [3d497] | 0.0262
39 | TTCACTTGTCGTAAGACACTTTGGTGGGTTA [3d499] | 0.00711
40 | TTCACTTGTCGTAAGACACTTTGGTGGGTTG [3d500] | 0.0269
41 | TTCACTTGTCGTAAGACACTTTGGTGGGTTGA [2d42] | 0.0345
42 | TTCACTTGTCGTAAGACACTTTGGTGGTTGA [3d498] | 0.014
43 | TTCACTTGTCGTAAGACACTTTGTGGGTTGA [3d492] | 0.0104
44 | TTCACTTGTCGTAAGACATTGGATGGGTTGA [3d477] | 0.653
45 | TTCACTTGTCGTAAGACATTTGATGGGTTGA [3d478] | 0.0347
46 | TTCACTTGTCGTAAGACATTTGGAGGGTTGA [3d480] | 0.0169

Row | Sequence | fraction ligated
47 | TTCACTTGTCGTAAGACATTTGGATGGGTTA [3d482] | 0.167
48 | TTCACTTGTCGTAAGACATTTGGATGGGTTG [3d483] | 0.731
49 | TTCACTTGTCGTAAGACATTTGGATGGGTTGA [2d39] | 0.776
50 | TTCACTTGTCGTAAGACATTTGGATGGTTGA [3d481] | 0.25
51 | TTCACTTGTCGTAAGACATTTGGTGGGTTGA [3d479] | 0.0115
52 | TTCACTTGTCGTAAGACCTTGGATGGGTTGA [3d470] | 0.678
53 | TTCACTTGTCGTAAGACCTTTGATGGGTTGA [3d471] | 0.164
54 | TTCACTTGTCGTAAGACCTTTGGAGGGTTGA [3d473] | 0.073
55 | TTCACTTGTCGTAAGACCTTTGGATGGGTTA [3d475] | 0.347
56 | TTCACTTGTCGTAAGACCTTTGGATGGGTTG [3d476] | 0.77
57 | TTCACTTGTCGTAAGACCTTTGGATGGGTTGA [2d38] | 0.793
58 | TTCACTTGTCGTAAGACCTTTGGATGGTTGA [3d474] | 0.523
59 | TTCACTTGTCGTAAGACCTTTGGTGGGTTGA [3d472] | 0.0157
60 | TTCACTTGTCGTAAGACTTTGGATGGGTTGA [3d452] | 0.752
61 | TTCACTTGTCGTAAGCACTTGGATGGGTTGA [3d455] | 0.231
62 | TTCACTTGTCGTAAGCACTTTGATGGGTTGA [3d456] | 0.0811
63 | TTCACTTGTCGTAAGCACTTTGGAGGGTTGA [3d458] | 0.051
64 | TTCACTTGTCGTAAGCACTTTGGATGGGTTA [3d460] | 0.0582
65 | TTCACTTGTCGTAAGCACTTTGGATGGGTTG [3d461] | 0.601
66 | TTCACTTGTCGTAAGCACTTTGGATGGGTTGA [2d36] | 0.771
67 | TTCACTTGTCGTAAGCACTTTGGATGGTTGA [3d459] | 0.164
68 | TTCACTTGTCGTAAGCACTTTGGTGGGTTGA [3d457] | 0.0197
69 | TTCACTTGTCGTAAGCATTTGGATGGGTTGA [3d454] | 0.769

Row | Sequence | fraction ligated
70 | TTCACTTGTCGTAAGCCTTTGGATGGGTTGA [3d453] | 0.525
71 | TTCACTTGTCGTAGAACTTTGGATGGGTTGA [3d432] | 0.761
72 | TTCACTTGTCGTAGACACTTGGATGGGTTGA [3d435] | 0.489
73 | TTCACTTGTCGTAGACACTTTGATGGGTTGA [3d436] | 0.258
74 | TTCACTTGTCGTAGACACTTTGGAGGGTTGA [3d438] | 0.149
75 | TTCACTTGTCGTAGACACTTTGGATGGGTTA [3d440] | 0.341
76 | TTCACTTGTCGTAGACACTTTGGATGGGTTG [3d441] | 0.801
77 | TTCACTTGTCGTAGACACTTTGGATGGGTTGA [2d34] | 0.798
78 | TTCACTTGTCGTAGACACTTTGGATGGTTGA [3d439] | 0.57
79 | TTCACTTGTCGTAGACACTTTGGTGGGTTGA [3d437] | 0.0435
80 | TTCACTTGTCGTAGACATTTGGATGGGTTGA [3d434] | 0.742
81 | TTCACTTGTCGTAGACCTTTGGATGGGTTGA [3d433] | 0.751
82 | TTCACTTGTCGTAGCACTTTGGATGGGTTGA [3d431] | 0.735
83 | TTCACTTGTCGTGACACTTTGGATGGGTTGA [3d429] | 0.255
84 | TTCACTTGTCTAAACACTTTGGATGGGTTGA [3d404] | 0.719
85 | TTCACTTGTCTAAGAACTTTGGATGGGTTGA [3d406] | 0.349
86 | TTCACTTGTCTAAGACACTTGGATGGGTTGA [3d409] | 0.435
87 | TTCACTTGTCTAAGACACTTTGATGGGTTGA [3d410] | 0.312
88 | TTCACTTGTCTAAGACACTTTGGAGGGTTGA [3d412] | 0.154
89 | TTCACTTGTCTAAGACACTTTGGATGGGTTA [3d414] | 0.344
90 | TTCACTTGTCTAAGACACTTTGGATGGGTTG [3d415] | 0.752
91 | TTCACTTGTCTAAGACACTTTGGATGGGTTGA [2d32] | 0.768
92 | TTCACTTGTCTAAGACACTTTGGATGGTTGA [3d413] | 0.661

Row | Sequence | fraction ligated
93 | TTCACTTGTCTAAGACACTTTGGTGGGTTGA [3d411] | 0.035
94 | TTCACTTGTCTAAGACATTTGGATGGGTTGA [3d408] | 0.753
95 | TTCACTTGTCTAAGACCTTTGGATGGGTTGA [3d407] | 0.578
96 | TTCACTTGTCTAAGCACTTTGGATGGGTTGA [3d405] | 0.67
97 | TTCACTTGTCTAGACACTTTGGATGGGTTGA [3d403] | 0.703
98 | TTCACTTGTGAAGACACTTTGGATGGGTTGA [3d388] | 0.767
99 | TTCACTTGTGTAAACACTTTGGATGGGTTGA [3d390] | 0.793
100 | TTCACTTGTGTAAGAACTTTGGATGGGTTGA [3d392] | 0.694
101 | TTCACTTGTGTAAGACACTTGGATGGGTTGA [3d395] | 0.161
102 | TTCACTTGTGTAAGACACTTTGATGGGTTGA [3d396] | 0.122
103 | TTCACTTGTGTAAGACACTTTGGAGGGTTGA [3d398] | 0.105
104 | TTCACTTGTGTAAGACACTTTGGATGGGTTA [3d400] | 0.132
105 | TTCACTTGTGTAAGACACTTTGGATGGGTTG [3d401] | 0.726
106 | TTCACTTGTGTAAGACACTTTGGATGGGTTGA [2d31] | 0.781
107 | TTCACTTGTGTAAGACACTTTGGATGGTTGA [3d399] | 0.284
108 | TTCACTTGTGTAAGACACTTTGGTGGGTTGA [3d397] | 0.00981
109 | TTCACTTGTGTAAGACATTTGGATGGGTTGA [3d394] | 0.778
110 | TTCACTTGTGTAAGACCTTTGGATGGGTTGA [3d393] | 0.548
111 | TTCACTTGTGTAAGCACTTTGGATGGGTTGA [3d391] | 0.775
112 | TTCACTTGTGTAGACACTTTGGATGGGTTGA [3d389] | 0.762
113 | TTCACTTGTTAAGACACTTTGGATGGGTTGA [3d387] | 0.775

— the supplement of paper PMC6755084
